Experimental data from article PMC6298963.
Where “and” joins values, the source holds several entries; their conditions need not be identical. Identical values can stand only once. Like-named read-outs stand apart in the source and are kept apart here.

Legend:
[1] = target: full length human APOBEC3G (human) (UniProt Q9HC16); assay: atomic force microscopy (protein volume analysis); 16 nM A3G with 4 nM hybrid DNA; 50 mM HEPES pH 7.5, 100 mM NaCl, 5 mM MgCl2, 1 mM DTT, 37 °C 30 min; on APS-mica, tapping mode in air; stoichiometry of A3G on the DNA from volume
[2] = target: full length human APOBEC3G (human) (UniProt Q9HC16); assay: atomic force microscopy (protein volume analysis); 80 nM A3G with 4 nM hybrid DNA; 50 mM HEPES pH 7.5, 100 mM NaCl, 5 mM MgCl2, 1 mM DTT, 37 °C 30 min; on APS-mica, tapping mode in air; stoichiometry of A3G on the DNA from volume
[3] = target: full length human APOBEC3G (human) (UniProt Q9HC16); assay: as above; remark: listed apart in the source
[4] = target: full length human APOBEC3G (human) (UniProt Q9HC16); assay: atomic force microscopy (protein volume analysis); 32 nM A3G with 4 nM hybrid DNA; 50 mM HEPES pH 7.5, 100 mM NaCl, 5 mM MgCl2, 1 mM DTT, 37 °C 30 min; on APS-mica, tapping mode in air; stoichiometry of A3G on the DNA from volume; fractions from areas under the Gaussians

stoichiometry N [1]: 2 and 3 | percent of A3G-DNA complexes with A3G trimers [2]: 88% | percent of A3G-DNA complexes with higher order A3G oligomers [2]: 12% | stoichiometry N [2]: 3 | percent of A3G-DNA complexes with A3G trimers [3]: 82% | percent of A3G-DNA complexes with higher order A3G oligomers [3]: 18% | stoichiometry N [3]: 6 | percent of A3G-DNA complexes with A3G dimers [4]: 78% | percent of A3G-DNA complexes with A3G tetramers [4]: 22% | stoichiometry N [4]: 2 and 4
Substance: full length human APOBEC3G (from UniProt Q9HC16 1-384) (enzyme)
